Reference: the supplement of paper PMC10724198
± gives the standard deviation of the averaged measurements.

Columns and labels:
Saccharomyces cerevisiae [1] = assay: protein stability index of tFT-peptide fusion (C-terminal peptide) (PSI (0-1 scale)); higher = more stable (slower turnover)
Description: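 MPS profiling in S. cerevisiae of the tFT-X12 degron library: putative degron peptides plus stable controls, 12 aa, fused to the C-terminus of a sfGFP-mCherry timer. Cells are FACS-sorted into 8 mCherry/sfGFP bins and deep-sequenced. PSI runs from 0 (unstable) to 1 (stable). Backgrounds are wild type, das1Δ and doa10Δ at 30 °C, and wild type, das1Δ, cdc34-1 and cdc53-1 at 37 °C; 2-3 technical replicates each.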

Saccharomyces cerevisiae [2] = assay: as above; conditions: genetic background: wild type; temperature: 30 C
[3] = genetic background: cdc34-1, temperature: 37 C
[4] = genetic background: cdc53-1, temperature: 37 C
[5] = genetic background: das1 deletion, temperature: 30 C
[6] = genetic background: das1 deletion, temperature: 37 C
[7] = genetic background: doa10 deletion, temperature: 30 C
[8] = genetic background: wild type, temperature: 30 C
[9] = genetic background: wild type, temperature: 37 C
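Note: PSI is a weighted mean of sequencing reads over stability bins, variants kept only with over 10 reads, mCherry proximal and sfGFP distal, peptide attached via GGGS linker.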

Sequence	protein stability index (Saccharomyces cerevisiae [1]; [3])	protein stability index (Saccharomyces cerevisiae [1]; [4])	protein stability index (Saccharomyces cerevisiae [1]; [5])	protein stability index (Saccharomyces cerevisiae [1]; [6])	protein stability index (Saccharomyces cerevisiae [1]; [7])	protein stability index (Saccharomyces cerevisiae [1]; [8])	protein stability index (Saccharomyces cerevisiae [1]; [9])	protein stability index (Saccharomyces cerevisiae [2])
AFRRFLLYCRFI	0.395 ± 0.013	0.378 ± 0.0056	0.503 ± 0.035	0.607 ± 0.015	0.199 ± 0.019	0.148 ± 0.025	0.201 ± 0.029	0.198 ± 0.012
AIPRWLALLVAH	0.32 ± 0.012	0.381 ± 0.0079	0.29 ± 0.032	0.4508 ± 0.0036	0.13 ± 0.018	0.159 ± 0.022	0.238 ± 0.0066	0.241 ± 0.0097
ALWRAWLRLRIW	0.517 ± 0.054	0.591 ± 0.03	0.582 ± 0.019	0.733 ± 0.016	0.143 ± 0.0041	0.124 ± 0.0037	0.0985 ± 0.012	0.205 ± 0.0025
AQLVYVITAVRT	0.452 ± 0.017	0.458 ± 0.024	0.333 ± 0.031	0.569 ± 0.026	0.291 ± 0.025	0.315 ± 0.019	0.507 ± 0.029	0.42 ± 0.029
ARLTNYFVEWLS	0.667 ± 0.012	0.757 ± 0.012	0.657 ± 0.0066	0.746 ± 0.012	0.358 ± 0.023	0.383 ± 0.029	0.592 ± 0.012	0.4612 ± 0.00085
ASAYCCMITRLN	0.485 ± 0.09	0.574 ± 0.086	0.629 ± 0.012	0.611 ± 0.047	0.0987 ± 0.011	0.0882 ± 0.026	0.1737 ± 0.00037	0.172 ± 0.042
ASGVFSRLVLVS	0.323 ± 0.0038	0.335 ± 0.016	0.284 ± 0.03	0.4576 ± 0.0023	0.173 ± 0.012	0.201 ± 0.024	0.282 ± 0.0035	0.3097 ± 0.0016
ASPLRLFIPFLF	0.678 ± 0.071	0.76 ± 0.017	0.632 ± 0.034	0.755 ± 0.036	0.192 ± 0.0066	0.211 ± 0.026	0.413 ± 0.0079	0.312 ± 0.058
AWLWCVCWSIMR	0.389 ± 0.017	0.414 ± 0.013	0.317 ± 0.034	0.502 ± 0.024	0.373 ± 0.028	0.323 ± 0.021	0.453 ± 0.0073	0.395 ± 0.025
AYFPSQRVHHLM	0.637 ± 0.046	0.706 ± 0.066	0.661 ± 0.016	0.765 ± 0.013	0.144 ± 0.0018	0.174 ± 0.033	0.374 ± 0.03	0.333 ± 0.017
CACAVPFLLLFF	0.474 ± 0.0077	0.519 ± 0.017	0.374 ± 0.022	0.505 ± 0.0063	0.497 ± 0.028	0.347 ± 0.032	0.494 ± 0.023	0.411 ± 0.025
CCSRYLSNLCPI	0.674 ± 0.052	0.751 ± 0.036	0.631 ± 0.016	0.7263 ± 0.0048	0.657 ± 0.033	0.648 ± 0.0072	0.726 ± 0.017	0.0813 ± 0.051
CDSRIRKIWSYL	0.836 ± 0.069	0.883 ± 0.019	0.774 ± 0.021	0.834 ± 0.026	0.2666 ± 0.0024	0.284 ± 0.039	0.494 ± 0.0054	0.36 ± 0.0036
CFFPLFLCTAFC	0.465 ± 0.027	0.4713 ± 0.0024	0.394 ± 0.023	0.513 ± 0.011	0.387 ± 0.0062	0.39 ± 0.0053	0.492 ± 0.022	0.425 ± 0.017
CFSVFSVLCFFV	0.575 ± 0.02	0.6301 ± 0.0018	0.532 ± 0.03	0.627 ± 0.015	0.415 ± 0.035	0.414 ± 0.019	0.513 ± 0.0066	0.437 ± 0.029
CFVFYALFGFAV	0.37 ± 0.037	0.463 ± 0.027	0.302 ± 0.036	0.484 ± 0.0052	0.252 ± 0.0068	0.285 ± 0.017	0.431 ± 0.046	0.401 ± 0.013
CLISILLFLCFT	0.439 ± 0.029	0.509 ± 0.074	0.392 ± 0.014	0.459 ± 0.037	0.376 ± 0.021	0.39 ± 0.021	0.446 ± 0.0076	0.4162 ± 0.0015
CLLVCCCFYRNV	0.501 ± 0.043	0.558 ± 0.0066	0.409 ± 0.032	0.586 ± 0.0086	0.371 ± 0.015	0.399 ± 0.025	0.523 ± 0.0091	0.469 ± 0.0069
CLVKIVIFFLFS	0.22 ± 0.011	0.326 ± 0.016	0.217 ± 0.037	0.371 ± 0.0075	0.191 ± 0.012	0.211 ± 0.024	0.34 ± 0.019	0.349 ± 0.035
CNIYVLIIIKKY	0.1831 ± 0.00032	0.298 ± 0.036	0.192 ± 0.026	0.344 ± 0.076	0.157 ± 0.0082	0.164 ± 0.039	0.325 ± 0.049	0.266 ± 0.1

Sequence	protein stability index (Saccharomyces cerevisiae [1]; [3])	protein stability index (Saccharomyces cerevisiae [1]; [4])	protein stability index (Saccharomyces cerevisiae [1]; [5])	protein stability index (Saccharomyces cerevisiae [1]; [6])	protein stability index (Saccharomyces cerevisiae [1]; [7])	protein stability index (Saccharomyces cerevisiae [1]; [8])	protein stability index (Saccharomyces cerevisiae [1]; [9])	protein stability index (Saccharomyces cerevisiae [2])
CPPPCPLYMLLC	0.506 ± 0.03	0.614 ± 0.041	0.536 ± 0.03	0.6121 ± 0.0031	0.163 ± 0.017	0.17 ± 0.024	0.171 ± 0.013	0.264 ± 0.025
CRLLYYIPCGLF	0.656 ± 0.02	0.703 ± 0.026	0.534 ± 0.029	0.701 ± 0.035	0.359 ± 0.022	0.403 ± 0.014	0.5973 ± 0.00064	0.49841 ± 0.00044
CRRLCGWLFVCV	0.466 ± 0.024	0.522 ± 0.025	0.387 ± 0.037	0.548 ± 0.014	0.396 ± 0.0074	0.38 ± 0.025	0.513 ± 0.036	0.46 ± 0.0068
CSFELSVCLMLR	0.063 ± 0.0088	0.07758 ± 0.00064	0.133 ± 0.013	0.198 ± 0.016	0.557 ± 0.015	0.107 ± 0.007	0.1855 ± 0.0013	0.188 ± 0.032
CSLRLCVRGAIV	0.667 ± 0.022	0.702 ± 0.021	0.602 ± 0.01	0.71597 ± 0.00049	0.586 ± 0.022	0.606 ± 0.0057	0.675 ± 0.024	0.0268 ± 0.022
CSSSNRRRYFVL	0.603 ± 0.034	0.706 ± 0.027	0.66 ± 0.014	0.724 ± 0.033	0.115 ± 0.022	0.131 ± 0.037	0.191 ± 0.0041	0.187 ± 0.023
CVARWPRPAGSS	0.699 ± 0.035	0.735 ± 0.047	0.655 ± 0.015	0.729 ± 0.0097	0.641 ± 0.017	0.673 ± 0.035	0.715 ± 0.015	0.723 ± 0.026
CVFFPFLGVCYV	0.4206 ± 0.0039	0.43047 ± 8.6e-05	0.333 ± 0.025	0.473 ± 0.0093	0.288 ± 0.01	0.336 ± 0.019	0.451 ± 0.0089	0.425 ± 0.017
CVGRPIALAVRT	0.52676 ± 0.0004	0.519 ± 0.048	0.375 ± 0.04	0.56 ± 0.0093	0.338 ± 0.025	0.38 ± 0.028	0.51959 ± 0.00012	0.511 ± 0.022
CVLLRPGFLVLV	0.1771 ± 0.0015	0.148 ± 0.011	0.207 ± 0.021	0.278 ± 0.013	0.2144 ± 0.0018	0.166 ± 0.014	0.216 ± 0.016	0.234 ± 0.011
CVYGILLLVDVR	0.0231 ± 0.00051	0.0547 ± 0.039	0.106 ± 0.032	0.128 ± 0.005	0.0714 ± 0.034	0.0971 ± 0.018	0.143 ± 0.066	0.189 ± 0.0074
CWDNTLKTMRQM	0.67 ± 0.0063	0.732 ± 0.022	0.655 ± 0.042	0.7322 ± 0.0059	0.307 ± 0.015	0.333 ± 0.018	0.5969 ± 0.0032	0.228 ± 0.1
CWLFCACFVRLV	0.125 ± 0.014	0.154 ± 0.0052	0.211 ± 0.019	0.333 ± 0.015	0.0691 ± 0.0032	0.0636 ± 0.0022	0.07618 ± 0.00043	0.101 ± 0.0076
CYFLFFLSYSLE	0.237 ± 0.0066	0.343 ± 0.045	0.231 ± 0.05	0.455 ± 0.019	0.194 ± 0.039	0.226 ± 0.029	0.439 ± 0.0046	0.297 ± 0.0097
CYTGYMYKLLVG	0.507 ± 0.054	0.547 ± 0.01	0.48 ± 0.031	0.59019 ± 0.00036	0.2458 ± 0.00076	0.243 ± 0.027	0.423 ± 0.015	0.346 ± 0.027
DFHLPWPVALVW	0.134 ± 0.02	0.144 ± 0.016	0.217 ± 0.018	0.277 ± 0.0039	0.188 ± 0.0067	0.208 ± 0.026	0.24 ± 0.013	0.387 ± 0.039
DFIVVIRFIQII	0.268 ± 0.012	0.376 ± 0.009	0.266 ± 0.023	0.3971 ± 0.0035	0.1447 ± 0.001	0.154 ± 0.027	0.235 ± 0.0043	0.232 ± 0.017
DFVYFPPIPVSS	0.303 ± 0.0088	0.352 ± 0.039	0.253 ± 0.051	0.462 ± 0.011	0.218 ± 0.0036	0.266 ± 0.032	0.409 ± 0.006	0.337 ± 0.018
DISWVFVLLIFF	0.333 ± 0.036	0.402 ± 0.012	0.3 ± 0.033	0.485 ± 0.029	0.318 ± 0.023	0.279 ± 0.039	0.445 ± 0.011	0.382 ± 0.026
